Values belong to the molecule of their own block, whether it stands above or below them.
Tests used:
[1] = biological target: LOX2-AOS-AOC2 plastid envelope complex (Arabidopsis thaliana, UniProt P38418); details: intact complex, coupled LOX2-AOS-AOC2 turnover; α-LeA is the LOX2 substrate
[2] = biological target: T1, AOS (CYP74A) (Arabidopsis thaliana, UniProt Q96242); experiment: cis-(+)-12-OPDA formation by free enzymes, HPLC / GC-MS; format: biochemical; details: free enzymes (SDS-dissociated, dialyzed complex), read-out coupled through AOC2; 10 min
T1 construct: free enzyme from SDS-dissociated, dialyzed envelope complex; bacterially expressed C-terminal (His)6 AOS, imported into Arabidopsis chloroplasts (transit peptide cleaved)
T1 sequence (Q96242 34-518): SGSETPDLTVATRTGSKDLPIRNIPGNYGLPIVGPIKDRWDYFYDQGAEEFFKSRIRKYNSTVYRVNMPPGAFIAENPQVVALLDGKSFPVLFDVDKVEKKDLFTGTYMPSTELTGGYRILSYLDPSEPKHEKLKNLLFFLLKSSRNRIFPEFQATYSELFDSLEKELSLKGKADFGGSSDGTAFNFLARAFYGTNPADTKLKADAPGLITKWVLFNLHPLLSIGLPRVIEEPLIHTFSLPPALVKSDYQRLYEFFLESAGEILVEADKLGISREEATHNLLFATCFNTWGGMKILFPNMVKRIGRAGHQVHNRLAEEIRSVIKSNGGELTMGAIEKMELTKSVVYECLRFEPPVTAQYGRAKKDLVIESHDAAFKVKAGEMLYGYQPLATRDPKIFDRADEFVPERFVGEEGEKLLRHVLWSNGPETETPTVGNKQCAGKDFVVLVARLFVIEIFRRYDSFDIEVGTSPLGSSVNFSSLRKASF

[3] = biological target: T2, C-terminal, (His)6-tagged allene oxide synthase [AOS-(His)6] (A. thaliana, UniProt Q96242 34-518); experiment: cell-based or functional assay
T2 sequence (looked up): T1 sequence (Q96242 34-518)

[4] = biological target: T2, C-terminal, (His)6-tagged allene oxide …; experiment: pull-down; purified (His)6-tagged bait imported into isolated Arabidopsis chloroplasts (2.5 mM Mg-ATP); mixed envelopes solubilised with 1.3% decyl maltoside; Ni-NTA affinity chromatography, size exclusion on Superose 6 (peak I, ~250 kDa); co-purified bands identified by SDS-PAGE with protein sequencing, LOX2 also by western blot; details: one partner purified
[5] = biological target: the molecule itself; experiment: SDS-PAGE with protein sequencing; bands of the proteins co-purified with AOS-(His)6 in peak I; ~72 kDa and ~24 kDa bands both sequenced as AOC2
[6] = biological target: T3, soluble, catalytically active AOS used for reconstitution of the complex (A. thaliana, UniProt Q96242 34-518); experiment: reconstitution of the complex in vitro; complex reconstituted from soluble, catalytically active LOX2, AOS and AOC2 and isolated plastid envelope lipids (Supplementary Fig. S8)
T3 construct: allene oxide synthase (AOS, CYP74A), A. thaliana
T3 sequence: T1 sequence (Q96242 34-518)

stoichiometry N [6]: 4
B2: soluble, catalytically active AOC2 used for reconstitution of the complex (enzyme, A. thaliana)
chain: PSKVQELSVYEINELDRHSPKILKNAFSLMFGLGDLVPFTNKLYTGDLKKRVGITAGLCVVIEHVPEKKGERFEATYSFYFGDYGHLSVQGPYLTYEDSFLAITGGAGIFEGAYGQVKLQQLVYPTKLFYTFYLKGLANDLPLELTGTPVPPSKDIEPAPEAKALEPSGVISNYTN
notes: allene oxide cyclase 2 (AOC2), A. thaliana

stoichiometry N [6]: 1
B4: soluble, catalytically active LOX2 used for reconstitution of the complex (enzyme, A. thaliana, UniProt P38418 57-896, looked up)
chain: ANIEQEGNTVKEPIQNIKVKGYITAQEEFLEGITWSRGLDDIADIRGRSLLVELISAKTDQRITVEDYAQRVWAEAPDEKYECEFEMPEDFGPVGAIKIQNQYHRQLFLKGVELKLPGGSITFTCESWVAPKSVDPTKRIFFSDKSYLPSQTPEPLKKYRKEELETLQGKNREEVGEFTKFERIYDYDVYNDVGDPDNDPELARPVIGGLTHPYPRRCKTGRKPCETDPSSEQRYGGEFYVPRDEEFSTAKGTSFTGKAVLAALPSIFPQIESVLLSPQEPFPHFKAIQNLFEEGIQLPKDAGLLPLLPRIIKALGEAQDDILQFDAPVLINRDRFSWLRDDEFARQTLAGLNPYSIQLVEEWPLISKLDPAVYGDPTSLITWEIVEREVKGNMTVDEALKNKRLFVLDYHDLLLPYVNKVRELNNTTLYASRTLFFLSDDSTLRPVAIELTCPPNINKPQWKQVFTPGYDATSCWLWNLAKTHAISHDAGYHQLISHWLRTHACTEPYIIAANRQLSAMHPIYRLLHPHFRYTMEINARARQSLVNGGGIIETCFWPGKYALELSSAVYGKLWRFDQEGLPADLIKRGLAEEDKTAEHGVRLTIPDYPFANDGLILWDAIKEWVTDYVKHYYPDEELITSDEELQGWWSEVRNIGHGDKKDEPWWPVLKTQDDLIGVVTTIAWVTSGHHAAVNFGQYGYGGYFPNRPTTTRIRMPTEDPTDEALKEFYESPEKVLLKTYPSQKQATLVMVTLDLLSTHSPDEEYIGEQQEASWANEPVINAAFERFKGKLQYLEGVIDERNVNITLKNRAGAGVVKYELLKPTSEHGVTGMGVPYSISI
notes: lipoxygenase 2 (LOX2), A. thaliana

The next lines start with the molecule.

Molecule: CC/C=C\C/C=C\C/C=C\CCCCCCCC(=O)O [α-linolenic acid]
cis-(+)-12-OPDA formation by isolated complex, HPLC / GC-MS [1]: α-LeA was converted to cis-(+)-12-OPDA by the isolated, intact (non-SDS-dissociated) plastid envelope complex

Molecule: CC/C=C\C[C@@H](/C=C/C=C\CCCCCCCC(=O)O)OO [13-HPOT, (9Z11E15Z13S)-13-hydroperoxy-9,11,15-octadecatrienoic acid]
cis-(+)-12-OPDA formation by free enzymes, HPLC / GC-MS [2]: but it was accepted in the free-enzyme assay (Fig. 5C)

B1: allene oxide cyclase 2 (AOC2), endogenous in the envelope of Arabidopsis chloroplasts (enzyme, UniProt Q9LS02 78-253, looked up)
chain: B2 chain
notes: allene oxide cyclase 2 (AOC2), A. thaliana, ~72 kDa (SDS-resistant trimer) and ~24 kDa (monomer) bands of the plastid envelope; Found both as trimer and as monomer; source: endogenous, envelopes of isolated Arabidopsis chloroplasts
rate of cis-(+)-12-OPDA formation from α-LeA by the intact LOX2-AOS-AOC2 envelope complex against the free-enzyme assay (complex dissociated with SDS and dialysed) [3]: 120 fold
stoichiometry N [4]: 4
stoichiometry N [5]: 3

B3: lipoxygenase 2 (LOX2), endogenous in the envelope of Arabidopsis chloroplasts (enzyme, UniProt P38418 57-896, looked up)
chain: B4 chain
notes: lipoxygenase 2 (LOX2), A. thaliana, ~100 kDa band of the plastid envelope; also called 13-lipoxygenase; source: endogenous, envelopes of isolated Arabidopsis chloroplasts
rate of cis-(+)-12-OPDA formation from α-LeA by the intact LOX2-AOS-AOC2 envelope complex against the free-enzyme assay (complex dissociated with SDS and dialysed) [3]: 120 fold
stoichiometry N [4]: 1

Source: publication PMC6411374, “Substrate channeling in oxylipin biosynthesis through a protein complex in the plastid envelope of Arabidopsis thaliana” (Journal of Experimental Botany, 2019)
